Results from patent US20030148389A1 (SERONO GENETICS INSTITUTE S A, published 2003).

Target: T1, PAPAP protein (human)
T1 construct: Identified by expression cloning; COS-1 cells transfected with the cDNA clone were stained by the AP fusion probe; also called PAPAP polypeptide; PAPAP gene product
Test: in situ receptor binding assay: AP staining of COS-1 cells transfected with human brain cDNA pools, incubated with PAP-AP fusion medium
Method: Plasmid DNA was obtained from pools of ˜1000 colonies using the QiaPrep Spin Miniprep kit (Qiagen). These pools of DNA were then transiently transfected into COS-1 cells as follows. Two micrograms of DNA from each pool of human brain cDNAs was diluted into 200 ul of serum-free medium (DMEM medium from Gibco-BRL with no additives). The DNA was complexed to the PLUS reagent by adding 12 ul of (mixed prior to use) PLUS reagent to the DNA in serum-free medium. 200 ul of the DNA-PLUS-Lipofectamine reagent complexes was added to wells containing Cos-1 cells plated at 0.25×10⁵ cells per well in 6 well dishes (35 mm) the day prior to transfection (in complete medium containing no antibiotics). Previous to the addition of the DNA/lipofectamine/PLUS complex, the complete medium was removed from the cells and replaced with 800 ul serum-free medium. Cells were incubated at 37 degrees C. at 5% CO₂ for 3 hours; then the medium in each well was replaced with 2 ml of complete medium.
Two days after transfection, cell staining was begun. Culture medium was removed from cells in the 6 well dishes. […]

T1 sequence (chain, as listed by the source limits assumed): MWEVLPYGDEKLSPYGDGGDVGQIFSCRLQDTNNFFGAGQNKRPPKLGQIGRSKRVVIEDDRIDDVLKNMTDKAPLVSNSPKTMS

B1: g34872 peptide-alkaline phosphatase fusion protein (other)
chain: DAAQPARRARRTYEAYQPLERMWTCNYNQQKDQSCNHKEITSTKAERRSSGIIPVEEENPDFWNREAAEALGAAKKLQPAQTAAKNLIIFLGDGMGVSTVTAARILKGQKKDKLGPEIPLAMDRFPYVALSKTYNVDKHVPDSGATATAYLCGVKGNFQTIGLSAAARFNQCNTTRGNEVISVMNRAKKAGKSVGVVTTTRVQHASPAGTYAHTVNRNWYSDADVPASARQEGCQDIATQLISNMDIDVILGGGRKYMFPMGTPDPEYPDDYSQGGTRLDGKNLVQEWLAKRQGARYVWNRTELMQASLDPSVTHLMGLFEPGDMKYEIHRDSTLDPSLMEMTEAALRLLSRNPRGFFLFVEGGRIDHGHHESRAYRALTETIMFDDAIERAGQLTSEEDTLSLVTADHSHVFSFGGYPLRGSSIFGLAPGKARDRKAYTVLLYGNGPGYVLKDGARPDVTESESGSPEYRQQSAVPLDEETHAGEDVAVFARGPQAHLVHGVQEQTFIAHVMAFAACLEPYTACDLAPPAGTTDAAHPGYLEEALSLEGPEQKLISEEDLNSAVDHHHHHH
notes: Used as conditioned medium from stably transfected 293T cells; The vector has a secretion signal upstream of the insert; also called PAP-AP fusion protein; AP fusion protein
Q: Does B1 bind?
A: Result: binds
